T1: Isl1 (mouse, UniProt P61372 1-349)
T1 sequence: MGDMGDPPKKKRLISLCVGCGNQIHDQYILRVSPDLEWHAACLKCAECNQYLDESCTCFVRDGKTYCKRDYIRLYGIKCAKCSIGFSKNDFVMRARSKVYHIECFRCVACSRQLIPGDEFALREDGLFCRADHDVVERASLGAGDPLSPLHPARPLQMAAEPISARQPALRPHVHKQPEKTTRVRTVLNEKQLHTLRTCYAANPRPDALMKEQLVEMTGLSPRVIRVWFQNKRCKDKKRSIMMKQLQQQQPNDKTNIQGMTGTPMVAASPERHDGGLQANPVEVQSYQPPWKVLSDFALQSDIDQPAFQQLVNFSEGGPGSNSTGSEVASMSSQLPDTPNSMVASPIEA

T2: Pou4f2D5 (mouse, UniProt Q63934 125-411)
T2 sequence: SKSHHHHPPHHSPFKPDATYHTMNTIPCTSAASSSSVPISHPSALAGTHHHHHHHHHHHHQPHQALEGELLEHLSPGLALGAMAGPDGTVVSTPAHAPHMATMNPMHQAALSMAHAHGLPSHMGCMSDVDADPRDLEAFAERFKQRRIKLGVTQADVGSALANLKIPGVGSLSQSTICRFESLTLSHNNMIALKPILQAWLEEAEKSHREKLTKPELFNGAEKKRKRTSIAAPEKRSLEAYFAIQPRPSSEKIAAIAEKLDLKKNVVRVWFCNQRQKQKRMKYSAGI

T3: Pou4f2 (Brn3b) (mouse, UniProt Q63934 1-411)
T3 sequence: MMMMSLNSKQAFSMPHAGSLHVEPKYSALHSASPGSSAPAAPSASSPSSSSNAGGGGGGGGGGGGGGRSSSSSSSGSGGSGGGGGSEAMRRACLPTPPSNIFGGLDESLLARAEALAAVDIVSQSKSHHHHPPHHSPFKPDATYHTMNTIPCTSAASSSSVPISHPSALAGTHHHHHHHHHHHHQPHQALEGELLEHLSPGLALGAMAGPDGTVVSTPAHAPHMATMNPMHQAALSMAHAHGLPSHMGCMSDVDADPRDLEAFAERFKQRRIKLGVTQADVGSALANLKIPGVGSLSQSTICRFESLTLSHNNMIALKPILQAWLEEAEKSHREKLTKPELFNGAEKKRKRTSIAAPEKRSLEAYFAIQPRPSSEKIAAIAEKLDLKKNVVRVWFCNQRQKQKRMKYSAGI

T4: Isl1 expressed in HEK 293 cells (mouse, UniProt P61372 1-349)
T4 sequence (looked up): T1 sequence

T5: Pou4f2, full-length, His-tagged (mouse, UniProt Q63934 1-411)
T5 construct: Pou4f2 (Brn3b), mouse, full-length coding region in pET-28a(+); 411 a.a; also called Brn3b; source: E. coli, in lysate (pull-down); purified on His SpinTrap columns (EMSA); not shown: His tag, C-terminal, kept
T5 sequence (looked up): T3 sequence

B1: IRX6(W) (dsDNA)
DNA 1: GTACTACTAATTAATTAATTGCAAACATTTC
DNA 2: GGAAATGTTTGCAATTAATTAATTAGTAGTA
B2: EBF3(M) (dsDNA)
DNA 1: GTGCGTTGCTATTTTCGTTGCTCGGGAAAA
DNA 2: TTTTCCCGAGCAACGAAAATAGCAACGCAC
B3: SBRN3(M) (dsDNA)
DNA 1: GCACACGACCCAGCGCGTTGACAACCGGGCTG
DNA 2: GCAGCCCGGTTGTCAACGCGCTGGGTCGTGTG
B4: Pou4f2D5 (a.a. 125-411) (domain or fragment, mouse, UniProt Q63934 125-411, looked up)
chain: T2 sequence
notes: Pou4f2, mouse, a.a; 125-411, POU and homeo domains intact; source: E. coli, in lysate (pull-down); purified on His SpinTrap columns (EMSA); not shown: His tag, C-terminal, kept
B5: Pou4f2 expressed in HEK 293 cells (natural protein, mouse, UniProt Q63934 1-411, looked up)
chain: T3 sequence
B6: Isl1D4 (a.a. 146-349) (domain or fragment, mouse, UniProt P61372 146-349, looked up)
chain: PLSPLHPARPLQMAAEPISARQPALRPHVHKQPEKTTRVRTVLNEKQLHTLRTCYAANPRPDALMKEQLVEMTGLSPRVIRVWFQNKRCKDKKRSIMMKQLQQQQPNDKTNIQGMTGTPMVAASPERHDGGLQANPVEVQSYQPPWKVLSDFALQSDIDQPAFQQLVNFSEGGPGSNSTGSEVASMSSQLPDTPNSMVASPIEA
notes: Isl1, mouse, a.a; 146-349; source: E. coli, in lysate (pull-down); purified on His SpinTrap columns (EMSA); not shown: His tag, C-terminal, kept
B7: CBRN3(M) (dsDNA)
DNA 1: GATCTCTCCTGCGCGGTTGACTACCCCCGGAT
DNA 2: GATCCGGGGGTAGTCAACCGCGCAGGAGAGAT
B8: Isl1D3 (a.a. 170-349) (domain or fragment, mouse, UniProt P61372 170-349, looked up)
chain: LRPHVHKQPEKTTRVRTVLNEKQLHTLRTCYAANPRPDALMKEQLVEMTGLSPRVIRVWFQNKRCKDKKRSIMMKQLQQQQPNDKTNIQGMTGTPMVAASPERHDGGLQANPVEVQSYQPPWKVLSDFALQSDIDQPAFQQLVNFSEGGPGSNSTGSEVASMSSQLPDTPNSMVASPIEA
notes: Isl1, mouse, a.a; 170-349, only the homeodomain and the C terminal region, none of the Lim domains; source: E. coli, in lysate (pull-down); purified on His SpinTrap columns (EMSA); not shown: His tag, C-terminal, kept
B9: Isl1D5 (a.a. 74-349) (domain or fragment, mouse, UniProt P61372 74-349, looked up)
chain: LYGIKCAKCSIGFSKNDFVMRARSKVYHIECFRCVACSRQLIPGDEFALREDGLFCRADHDVVERASLGAGDPLSPLHPARPLQMAAEPISARQPALRPHVHKQPEKTTRVRTVLNEKQLHTLRTCYAANPRPDALMKEQLVEMTGLSPRVIRVWFQNKRCKDKKRSIMMKQLQQQQPNDKTNIQGMTGTPMVAASPERHDGGLQANPVEVQSYQPPWKVLSDFALQSDIDQPAFQQLVNFSEGGPGSNSTGSEVASMSSQLPDTPNSMVASPIEA
notes: Isl1, mouse, a.a; 74-349; source: E. coli, in lysate (pull-down); purified on His SpinTrap columns (EMSA); not shown: His tag, C-terminal, kept
B10: EBF3(W) (dsDNA)
DNA 1: GTGCGTTAATATTTTAATTAATCGGGAAAA
DNA 2: TTTTCCCGATTAATTAAAATATTAACGCAC
B11: Isl1, full-length, His-tagged (natural protein, mouse, UniProt P61372 1-349, looked up)
chain: T1 sequence
notes: Isl1, mouse, full-length coding region in pET-28a(+); 349 a.a; source: E. coli, in lysate (pull-down); purified on His SpinTrap columns (EMSA); not shown: His tag, C-terminal, kept
B12: IRX6(M) (dsDNA)
DNA 1: TACTACTGCTTCGTTGCTTGCAAACATTTC
DNA 2: GGAAATGTTTGCAAGCAACGAAGCAGTAGTA

Columns and labels:
Isl1 = target: T1, Isl1; assay: EMSA; EMSA: 20 mM Tris-HCl pH 7.5, 50 mM NaCl, 10 mM DTT, 1 mM EDTA, 5% glycerol, 200 ng dI/dC, 200 ng each protein in 20 ul, 4 C, 30 min; 8% PAGE, 1x TBE, 4 C; conditions: protein: recombinant, tags: His (C-terminal, pET-28a)
Pou4f2D5 = target: T2, Pou4f2D5; assay: as above; conditions: protein: recombinant, tags: His (C-terminal)
Pou4f2 (Brn3b) = target: T3, Pou4f2 (Brn3b); assay: as above; conditions: protein: recombinant; tags: His (C-terminal, pET-28a); (radiolabel, Klenow fill-in); 5' overhang 1 nt at both ends before fill-in
[1] = target: B11; assay: native gel or EMSA; EMSA with purified His-tagged proteins (200 ng each) and radiolabelled DNA probes (SBRN3, CBRN3; Ebf3 and Irx6 for Isl1 with Pou4f2D5); protein-protein complex read from a slower migrating ternary complex on DNA; 20 mM Tris-HCl pH 7.5, 0.05 M NaCl, 10 mM DTT, 1 mM EDTA, 5% glycerol, 4 C; conditions: both partners purified
[2] = target: T4, Isl1 expressed in HEK 293 cells; assay: cell-based or functional assay
[3] = target: T5, Pou4f2, full-length, His-tagged; assay: native gel or EMSA; EMSA with purified His-tagged proteins (200 ng each) and radiolabelled DNA probes (SBRN3, CBRN3; Ebf3 and Irx6 for Isl1 with Pou4f2D5); protein-protein complex read from a slower migrating ternary complex on DNA; 20 mM Tris-HCl pH 7.5, 0.05 M NaCl, 10 mM DTT, 1 mM EDTA, 5% glycerol, 4 C; conditions: both partners purified
[4] = (radiolabel, Klenow fill-in), 5' overhang 1 nt at both ends before fill-in
[5] = (radiolabel, Klenow fill-in), one end blunt, lower strand 5' overhang 1 nt before fill-in

Binder: B1
- binding result (Isl1; [4]): binds
- binding result (Pou4f2D5; [4]): binds

Binder: B2
- binding result (Isl1; (radiolabel, Klenow), blunt): no binding
- binding result (Pou4f2D5; (radiolabel, Klenow), blunt): no binding

Binder: B3
- binding result (Pou4f2 (Brn3b)): no binding
- binding result (Isl1; [4]): no binding

Binder: B4
- binding result [1]: binds

Binder: B5
- luciferase reporter with the CBRN3 motif in HEK 293 cells, both expression constructs co-transfected, fold increase from the control (each factor alone about 2.5 fold) [2]: ~3.5 fold

Binder: B6
- binding result [3]: binds

Binder: B7
- binding result (Pou4f2 (Brn3b)): no binding
- binding result (Isl1; [4]): no binding

Binder: B8
- binding result [3]: binds

Binder: B9
- binding result [3]: binds

Binder: B10
- binding result (Isl1; (radiolabel, Klenow), blunt): binds
- binding result (Pou4f2D5; (radiolabel, Klenow), blunt): binds

Binder: B11
- binding result [3]: binds

Binder: B12
- binding result (Isl1; [5]): no binding
- binding result (Pou4f2D5; [5]): no binding
